Source: PMC4320081
Where a chain is given by its changes, count along the chain named.

B1: TsalNb-5-HRP (VHH)
VHH: QVQLQESGGGLVQPGGSLRLSCAGSGLTLDYYAMGWYRQAPGKQREGVSCITSSGGRTNYADSVKGRFTISRDNAKNTVSLQMNSLKPEDTAVYYCAATEWLAGTKCLLSHEYDYWGQGTQVTVSS
B2: TsalNb-11-HRP (VHH)
VHH: QVQLQESGGGLVQPGESLRLSCAASEFTLDYYAMAWYRQAPGKQREGVSCITSSGGRTNYADSVKGRFTISRENGKNTVYLQMSSLKPGDTAVYYCAATEWLAGTKCLGSHEYDYWGQGTQVTVSS
B3: TsalNb-5 (VHH)
VHH: B1 VHH
B4: TsalNb-8 (VHH)
VHH: B1 VHH with G24A, G26V, G35A, T78M, S80Y, L109S
B5: TsalNb-11 (VHH)
VHH: B2 VHH
B6: TsalNb-1 (VHH)
VHH: QVQLQESGGGLVQVGGSLRLSCTASGSIFSINYANWYRQAPGKQRELVAGITSDGSTNYADSVKGRFTISRDNAKNTVYLQMNRLTPEDTAVYYCKPRAWLTGRWENYWGQGTQVTVSS
B7: TsalNb-4 (VHH)
VHH: B6 VHH with N35G, D54G, N73S, R84S, T86K, P87A
B8: TsalNb-2 (VHH)
VHH: B6 VHH with T23Q, I31N, N32S, A34M, N35G, D54G, R84S, T86K
B9: TsalNb-12 (VHH)
VHH: B6 VHH with V14P
B10: TsalNb-3 (VHH)
VHH: B6 VHH with T23A, A24V, I31N, A34M, N35G, D54G, R84S, T86L, A99G
B11: TsalNb-10 (VHH)
VHH: B6 VHH with T23A, I31N, A34M, N35G, D54G, R84N, T86K, Y94N, A99G

Target: native Tsal proteins in G. m. morsitans saliva (Glossina morsitans morsitans (endogenous in saliva))
Assay: ELISA; competitive ELISA: 250 ng G. m. morsitans saliva coated per well, plasma (immune, naive or control) applied 1 h, then HRP-conjugated Nb (1:160 or 1:320) 1 h; ABTS, O.D. 405 nm

B1 was tested. Which mean endpoint O.D.405nm of controls (control mouse plasma) did it give?
Its mean endpoint O.D.405nm of controls (control mouse plasma) is 2.26 O.D._(405nm).

What about the mean endpoint O.D.405nm of controls (control porcine plasma) of the same binder?
Its mean endpoint O.D.405nm of controls (control porcine plasma) is 2.31 O.D._(405nm).

How did the mean endpoint O.D.405nm of controls (control mouse plasma) turn out when B2 was run?
The mean endpoint O.D.405nm of controls (control mouse plasma) was 2.35 O.D._(405nm).

What about the mean endpoint O.D.405nm of controls (control porcine plasma) of the same binder?
Its mean endpoint O.D.405nm of controls (control porcine plasma) is 2.24 O.D._(405nm).

Target: native Tsal proteins in G. m. morsitans saliva (Glossina morsitans morsitans (endogenous in saliva))
Assay: SPR; 4000 RU G. m. morsitans saliva amine-coupled (10 mM sodium acetate pH 4.5) on a CM5 chip; purified Nb analytes 500 to 0.976 nM; BIAcore T200; contact 180 s, dissociation 600 s, 10 ul/min; Langmuir 1:1 fit

B3 was tested. Which Kd did it give?
The Kd was 4.4 nM.

And the koff?
The koff was 0.004 s⁻¹.

What about the kon of the same binder?
Its kon is 910000 M⁻¹ s⁻¹.

How did the Kd turn out when B4 was run?
Its Kd is 18 nM.

What about the koff of the same binder?
The koff was 0.017 s⁻¹.

And the kon?
Its kon is 970000 M⁻¹ s⁻¹.

How did the Kd turn out when B5 was run?
The Kd was 2.7 nM.

What about the koff of the same binder?
Its koff is 0.0035 s⁻¹.

And the kon?
The kon was 1.3e+06 M⁻¹ s⁻¹.

What does the source list for B6?
Kd: 0.44 nM; koff: 0.00037 s⁻¹; kon: 850000 M⁻¹ s⁻¹

Which Kd does the source give for B7 here?
Its Kd is 0.44 nM.

What about the koff of the same binder?
The koff was 0.0005 s⁻¹.

And the kon?
The kon was 1.1e+06 M⁻¹ s⁻¹.

How did the Kd turn out when B8 was run?
Its Kd is 0.64 nM.

What about the koff of the same binder?
Its koff is 0.00077 s⁻¹.

And the kon?
Its kon is 1.2e+06 M⁻¹ s⁻¹.

With B9 as the binder, how does the Kd read?
Its Kd is 0.47 nM.

What about the koff of the same binder?
Its koff is 0.00039 s⁻¹.

What about the kon of the same binder?
The kon was 830000 M⁻¹ s⁻¹.

How did the Kd turn out when B10 was run?
The Kd was 0.54 nM.

What about the koff of the same binder?
The koff was 0.00051 s⁻¹.

What about the kon of the same binder?
The kon was 930000 M⁻¹ s⁻¹.

Which Kd does the source give for B11 here?
Its Kd is 0.79 nM.

What about the koff of the same binder?
The koff was 0.001 s⁻¹.

What about the kon of the same binder?
The kon was 1.3e+06 M⁻¹ s⁻¹.

Target: native Tsal proteins in G. m. morsitans saliva (Glossina morsitans morsitans (endogenous in saliva))
Assay: ELISA; competitive ELISA: 250 ng G. m. morsitans saliva coated per well, plasma (immune, naive or control) applied 1 h, then HRP-conjugated Nb (1:160 or 1:320) 1 h; ABTS, O.D. 405 nm
Remark: another data set of the same source

Which mean endpoint O.D.405nm of controls (control porcine plasma) does the source give for B1 here?
Its mean endpoint O.D.405nm of controls (control porcine plasma) is 2.23 O.D._(405nm).

For B2, which mean endpoint O.D.405nm of controls (control porcine plasma) is on record?
Its mean endpoint O.D.405nm of controls (control porcine plasma) is 2.29 O.D._(405nm).
